# Measurements: the Immune Epitope Database (IEDB)
# Target: HLA-A*02:01
# Assay: IEDB peptide-MHC binding, cellular MHC/competitive/fluorescence; ≥ and ≤ were set here for values at or beyond the usual limits of such assays
# Details: source organism: Vaccinia virus WR
row,Sequence,IC50
1,AAASSTHRKV,≥ 70000 nM
2,AAITDAAVA,18600 nM
3,AAITDAAVAV,5310 nM
4,AASKQQMLM,≥ 70000 nM
5,AASPMLYQLL,16000 nM
6,AASSTHRKVA,≥ 70000 nM
7,AIDFGNGADL,46800 nM
8,AIFTDASTVA,18500 nM
9,AIIRQRNDEI,17400 nM
10,AIKCEGLDV,13600 nM
11,AIMFKDDNI,9740 nM

# Target: HLA-A*02:03
# Assay: IEDB peptide-MHC binding, purified MHC/competitive/radioactivity; ≥ and ≤ were set here for values at or beyond the usual limits of such assays
# Details: source organism: Hepatitis B virus
row,Sequence,IC50
1,SILSPFLPLL,16 nM
2,SLNFLGGTTV,0.67 nM

# Target: HLA-A*02:02
# Assay: as above
# Details: source organism: Hepatitis B virus
row,Sequence,IC50
1,GLSPTVWLSV,23 nM

# Target: HLA-A*02:01
# Assay: as above
# Details: source organism: Hepatitis B virus
row,Sequence,IC50
1,GLSPTVWLSV,29 nM

# Same assay, conditions: source organism: Mammarenavirus brazilense
row,Sequence,IC50
1,TLFFTTTLFL,423 nM
2,TLVDICFWST,13 nM

# Same assay, conditions: source organism: Mammarenavirus choriomeningitidis
row,Sequence,IC50
1,YIACRTSIV,46 nM
2,YLISIFLHLV,5.8 nM

# Same assay, conditions: source organism: Mammarenavirus machupoense
row,Sequence,IC50
1,TMNSVVQAL,1250 nM
2,VLSYVIGLL,210 nM

# Same assay, conditions: source organism: Mammarenavirus whitewaterense
row,Sequence,IC50
1,TLKSFFAWSL,1340 nM
2,YVNHTGFNV,478 nM
3,YVSSIFLHL,157 nM

# Same assay, conditions: source organism: Vaccinia virus WR
row,Sequence,IC50
1,SLTNEIYASI,161 nM
2,SLVEMMWDL,11 nM
3,SLYDQKEINA,267 nM
4,SMDTLLFFL,1 nM
5,SMFLMTATL,2.3 nM
6,SMICLSLILA,101 nM
7,SMIGLCACV,2 nM
8,SMISRHCCI,986 nM
9,SMITMSAFL,20 nM
10,SMITMSAFLI,59 nM
11,SMLGIWFFT,0.65 nM
12,SMLIEVILTA,795 nM
13,SMMNRDKIPI,1360 nM
14,SMPASHNNLA,1910 nM
15,SMSSYDFST,0.34 nM
16,SMTENVEEDL,755 nM
17,SMVISLLSMI,79 nM
18,SQEVRKYFCV,1200 nM
19,SQMTSTFIM,85 nM
20,SQSERDNYI,1190 nM
21,SQYANCSSI,81 nM
22,SQYYFSMLV,13 nM
23,STAVNEEWL,4690 nM
24,STEERHIFL,2250 nM
25,STFIMLEGET,3480 nM
26,STIATYIDAL,2780 nM

row,Sequence,IC50
1,STIDGRIVTL,736 nM
2,STLIVTIYV,677 nM
3,STYWVIPWEL,76 nM
4,SVCNSLSQI,1510 nM
5,SVEKIADDRI,3830 nM
6,SVNIWAIIPL,1120 nM
7,SVSESNIDL,569 nM
8,SVVIYDFLV,1.1 nM
9,SVVVPIKFI,2960 nM
10,SVVVPIKFIA,4060 nM
11,TAIFTDASTV,4460 nM
12,TAKSSFVCGI,1130 nM
13,TAYEINNEL,925 nM
14,TIATYIDAL,610 nM
15,TIATYIDALA,125 nM
16,TIDFKLKYFL,3030 nM
17,TIDGRIVTL,2170 nM
18,TIDQTANVV,549 nM
19,TIGNQLYLTV,18 nM
20,TIIALLFAL,12 nM
21,TIIFVLISI,1180 nM
22,TIMGVIFLI,9.6 nM
23,TINCDVGYEV,385 nM
24,TINNLKMML,193 nM
25,TISVVTLLCV,3420 nM
26,TLAPFNFLV,0.22 nM

row,Sequence,IC50
1,TLDNILGIL,67 nM
2,TLDTAIFTDA,50 nM
3,TLFDDELYSI,1.1 nM
4,TLFLILCYFI,21 nM
5,TLFLLFLEI,56 nM
6,TLIDDPDNNL,781 nM
7,TLLCVLPAV,1 nM
8,TLLCVLPAVV,2.5 nM
9,TLRHIIGLLM,748 nM
10,TLSRHIFMA,6.2 nM
11,TLTNVVNIST,1240 nM
12,TLVAIFSYI,863 nM
13,TLWAIINTI,9.4 nM
14,TLYDFDYYI,0.18 nM
15,TLYDFDYYII,5.8 nM
16,TMFKIVYSL,9.3 nM
17,TMLMFIFTGI,0.89 nM
18,TMLSIILVI,1.4 nM
19,TMLSIILVII,154 nM
20,TMSAFLIVRL,448 nM
21,TMVDKPTEL,185 nM
22,TTLSRHIFMA,399 nM
23,TTTSEVVDML,2520 nM
24,TVASAQIHL,3130 nM
25,TVIHLEWLL,5.6 nM
26,TVMNNLSEL,533 nM

row,Sequence,IC50
1,TVMVKINPTL,114 nM
2,TVSDYISEL,128 nM
3,TVTNKEGVKI,2880 nM
4,VIDEILFKV,1.3 nM
5,VIFLISVIVL,1540 nM
6,VIGLCIRISM,735 nM
7,VIHDYICWL,12 nM
8,VILFIMFMLI,384 nM
9,VILSPPINA,872 nM
10,VIVIYIFTV,104 nM
11,VLAIDFGNGA,1440 nM
12,VLDATNDGLI,369 nM
13,VLDTTLYAV,0.6 nM
14,VLEYIYGGKT,1440 nM
15,VLGKVTINNL,1770 nM
16,VLITMLSIIL,124 nM
17,VLITWLIDYV,0.8 nM
18,VLLDYGLHGL,1.3 nM
19,VLLTYFCFV,0.28 nM
20,VLMEAQQGI,7.1 nM
21,VLNIVLFIL,393 nM
22,VLPAVVYST,113 nM
23,VLPNKVRIFI,1310 nM
24,VLSNTSTAV,16 nM
25,VLVDNVDFA,20 nM
26,VLVDNVDFAT,16 nM

row,Sequence,IC50
1,VLYDEFKCFI,5.9 nM
2,VLYNGVNYL,0.25 nM
3,VLYPVIFIT,9.3 nM
4,VMAYVGIKL,1300 nM
5,VMDNDDNIL,719 nM
6,VMISILNPV,33 nM
7,VMKLFTISV,8 nM
8,VMNNLSELT,2080 nM
9,VMNNLSELTA,453 nM
10,VMTPSPFYT,2660 nM
11,VMTPSPFYTV,26 nM
12,VMVTITQNV,37 nM
13,VTINNLKMML,3060 nM
14,VTLLCVLPA,76 nM
15,VTLLCVLPAV,3.8 nM
16,VTLQKVLHV,622 nM
17,VTMVDKPTEL,3360 nM
18,VVCNDLYKV,174 nM
19,VVLDATNDGL,1450 nM
20,VVMAYVGIKL,219 nM
21,VVSVDCNKEL,2430 nM
22,VVTLLCVLPA,262 nM
23,VVVPIKFIA,2840 nM
24,VVYSTCTVPT,2320 nM
25,WLIGFDFDV,0.06 nM
26,WLLCKLSCA,151 nM

row,Sequence,IC50
1,WLLGFIKCI,25 nM
2,WLTSILLSL,1.2 nM
3,WLYGYNFII,0.19 nM
4,YANCSSISI,901 nM
5,YANNDKFRL,587 nM
6,YASIINRDI,2230 nM
7,YAVTKTDGI,3060 nM
8,YAYGWIPET,43 nM
9,YIDALAKNA,473 nM
10,YIDAYVSRL,1.9 nM
11,YIFAALGGSV,45 nM
12,YIIDKDTNSV,30 nM
13,YIIDWMVDI,0.92 nM
14,YIIKKNDIV,2000 nM
15,YIIKNTFNV,0.54 nM
16,YIIRVTTEL,36 nM
17,YIIRYPVKRI,1020 nM
18,YILCNMALL,0.38 nM
19,YILHSDYQL,13 nM
20,YILRGLLEA,2.5 nM
21,YINTHNEVGI,1640 nM
22,YISELYNKPL,626 nM
23,YITALNHLV,0.71 nM
24,YITALNHLVL,280 nM
25,YIYYFFIRL,8.8 nM
26,YLAIPDLYGI,8.2 nM

row,Sequence,IC50
1,YLCTFMIIT,87 nM
2,YLDDHRYLFI,12 nM
3,YLDFLLLLL,0.43 nM
4,YLDFLLLLLI,18 nM
5,YLDGQLARL,1.3 nM
6,YLFDYPHFEA,0.085 nM
7,YLFGGFSTL,0.87 nM
8,YLFNAIETM,1.5 nM
9,YLFRIVSTV,1.2 nM
10,YLFTFTIYT,3.3 nM
11,YLGMFNPYSL,0.16 nM
12,YLIHDNIMYT,1.3 nM
13,YLIKLIEPV,8 nM
14,YLKEYIPKA,1.7 nM
15,YLKIGTLLV,17 nM
16,YLLAVCGCI,13 nM
17,YLLCCNYKL,0.36 nM
18,YLLDDVLYT,1.3 nM
19,YLLDRGADI,8.6 nM
20,YLLFGIKCI,27 nM
21,YLLPGFVLT,5.7 nM
22,YLLSGSDLFI,0.25 nM
23,YLLSLFSTLV,0.32 nM
24,YLMDEEVPA,13 nM
25,YLMPYSVYI,0.26 nM
26,YLNTNKLFFA,9.9 nM

row,Sequence,IC50
1,YLPKQPEGV,1.2 nM
2,YLPKQPEGVI,279 nM
3,YLPLSVFII,6.2 nM
4,YLSAKITTL,5.5 nM
5,YLSSWTPVV,0.33 nM
6,YLTAIQDFI,1.9 nM
7,YLTVSFIDET,4780 nM
8,YLVDVETIGV,0.17 nM
9,YLVIYLNRT,819 nM
10,YLVNAIIDSA,134 nM
11,YLVPNVIGGV,0.61 nM
12,YLVSSLSEI,6.5 nM
13,YLYALYSPL,0.13 nM
14,YLYETYHLI,2.4 nM
15,YLYQPCDLL,1.8 nM
16,YMATTILEMV,1.5 nM
17,YMDLSYHGV,1.1 nM
18,YMDLSYHGVT,85 nM
19,YMFFVIKNL,21 nM
20,YMMGIEYGL,0.12 nM
21,YMNYYTTYI,1.1 nM
22,YMSFWCKSI,26 nM
23,YQDSDVSQEV,12 nM
24,YQLAGYILT,16 nM
25,YQLFSDAKA,1790 nM
26,YQMLLALVAL,1.5 nM

row,Sequence,IC50
1,YQYIFLSFFA,19 nM
2,YQYVRLHEM,9.2 nM
3,YTALHYYYL,17 nM
4,YTDEVYDYL,21 nM
5,YTDSIQDLL,933 nM
6,YTIERIFNA,0.56 nM
7,YTINCLLYI,5.1 nM
8,YTQDELINV,7.3 nM
9,YTYAFTKKV,16 nM
10,YTYFSNTILL,189 nM
11,YTYLIGEKI,5000 nM
12,YVHGDTYSL,71 nM
13,YVKTLLISM,1890 nM
14,YVLFTVMTYV,1 nM
15,YVLLHLLVV,101 nM
16,YVMTMILFL,0.065 nM
17,YVPGYSITT,132 nM
18,YVSTGESSIL,1360 nM
19,YVTKKNNNI,505 nM
